Results: patent publication US20230002480A1

Columns and labels:
Experiment in all cases: cell-based or functional assay
[1] = target: HIV-1 Env of pseudovirus 7030102001E5(Rev-) (HIV-1)
[2] = target: HIV-1 Env of pseudovirus 211-9 (HIV-1)
[3] = target: HIV-1 Env of pseudovirus BF1266.431a (HIV-1)
[4] = target: HIV-1 Env of pseudovirus Ce1172_H1 (HIV-1)
[5] = target: HIV-1 Env of pseudovirus 6244_13_B5_4576 (HIV-1)
[6] = target: HIV-1 Env of pseudovirus CNE21 (HIV-1)
[7] = target: HIV-1 Env of pseudovirus CNE19 (HIV-1)
[8] = target: HIV-1 Env of pseudovirus CNE52 (HIV-1)
[9] = target: HIV-1 Env of pseudovirus RHPA4259.7 (HIV-1)
[10] = target: HIV-1 Env of pseudovirus ZM135M.PL10a (HIV-1)
[11] = target: HIV-1 Env of pseudovirus 1006_11_C3_1601 (HIV-1)
[12] = target: HIV-1 Env of pseudovirus 620345.c01 (HIV-1)
[13] = target: HIV-1 Env of pseudovirus BJOX010000.06.2 (HIV-1)
[14] = target: HIV-1 Env of pseudovirus R1166.c01 (HIV-1)
[15] = target: HIV-1 Env of pseudovirus P1981_C5_3 (HIV-1)
[16] = target: HIV-1 Env of pseudovirus 6811.v7.c18 (HIV-1)
[17] = target: HIV-1 Env of pseudovirus Ce2010_F5 (HIV-1)
[18] = target: HIV-1 Env of pseudovirus THRO4156.18 (HIV-1)
[19] = target: HIV-1 Env of pseudovirus MS208.A1 (HIV-1)
[20] = target: HIV-1 Env of pseudovirus WITO4160.33 (HIV-1)
[21] = target: HIV-1 Env of pseudovirus T255-34 (HIV-1)
[22] = target: HIV-1 Env of pseudovirus 231966.c02 (HIV-1)
[23] = target: HIV-1 Env of pseudovirus Q259.d2.17 (HIV-1)
[24] = target: HIV-1 Env of pseudovirus 6545.v4.c1 (HIV-1)
[25] = target: HIV-1 Env of pseudovirus 246F C1G (HIV-1)
[26] = target: HIV-1 Env of pseudovirus R3265.c06 (HIV-1)
[27] = target: HIV-1 Env of pseudovirus P0402_c2_11 (HIV-1)
[28] = target: HIV-1 Env of pseudovirus CAP210.2.00.E8 (HIV-1)
[29] = target: HIV-1 Env of pseudovirus REJO4541.67 (HIV-1)
[30] = target: HIV-1 Env of pseudovirus Ce703010054_2A2 (HIV-1)
[31] = target: HIV-1 Env of pseudovirus ZM249M.PL1 (HIV-1)
[32] = target: HIV-1 Env of pseudovirus AC10.0.29 (HIV-1)
[33] = target: HIV-1 Env of pseudovirus CAAN5342.A2 (HIV-1)
[34] = target: HIV-1 Env of pseudovirus WEAU_d15_410_787 (HIV-1)
[35] = target: HIV-1 Env of pseudovirus HIV-16845-2.22 (HIV-1)
[36] = target: HIV-1 Env of pseudovirus CNE8 (HIV-1)

Substance: PGT151 (antibody)
- IC50 [1]: 0.001 µg/mL
- IC80 [1]: 0.011 µg/mL
- IC50, titer in TZM.bl cells [2]: 0.002 µg/mL
- IC80, titer in TZM.bl cells [2]: 0.01 µg/mL
- IC50 [3]: > 50 µg/mL
- IC80 [3]: > 50 µg/mL
- IC50 [4]: > 50 µg/mL
- IC80 [4]: > 50 µg/mL
- IC50 [5]: > 50 µg/mL
- IC80 [5]: > 50 µg/mL
- IC50 [6]: 0.004 µg/mL
- IC80 [6]: 0.012 µg/mL
- IC50 [7]: 0.014 µg/mL
- IC80 [7]: > 50 µg/mL
- IC50 [8]: 0.004 µg/mL
- IC80 [8]: 0.017 µg/mL
- IC50 [9]: 0.006 µg/mL
- IC80 [9]: 0.033 µg/mL
- IC50 [10]: > 50 µg/mL
- IC80 [10]: > 50 µg/mL
- IC50 [11]: 2.89 µg/mL
- IC80 [11]: > 50 µg/mL
- IC50, titer in TZM.bl cells [12]: > 50 µg/mL
- IC80, titer in TZM.bl cells [12]: > 50 µg/mL
- IC50, titer in TZM.bl cells [13]: > 50 µg/mL
- IC80, titer in TZM.bl cells [13]: > 50 µg/mL
- IC50, titer in TZM.bl cells [14]: > 50 µg/mL
- IC80, titer in TZM.bl cells [14]: > 50 µg/mL
- IC50, titer in TZM.bl cells [15]: 0.021 µg/mL
- IC80, titer in TZM.bl cells [15]: > 50 µg/mL
- IC50, titer in TZM.bl cells [16]: > 50 µg/mL
- IC80, titer in TZM.bl cells [16]: > 50 µg/mL
- IC50 [17]: > 50 µg/mL
- IC80 [17]: > 50 µg/mL
- IC50 [18]: > 50 µg/mL
- IC80 [18]: > 50 µg/mL
- IC50 [19]: < 0.001 µg/mL
- IC80 [19]: 0.003 µg/mL
- IC50 [20]: 0.002 µg/mL
- IC80 [20]: 0.021 µg/mL
- IC50, titer in TZM.bl cells [21]: 0.002 µg/mL
- IC80, titer in TZM.bl cells [21]: 0.01 µg/mL
- IC50, titer in TZM.bl cells [22]: 0.025 µg/mL
- IC80, titer in TZM.bl cells [22]: 0.183 µg/mL
- IC50 [23]: > 50 µg/mL
- IC80 [23]: > 50 µg/mL
- IC50, titer in TZM.bl cells [24]: 0.004 µg/mL
- IC80, titer in TZM.bl cells [24]: 0.026 µg/mL
- IC50 [25]: > 50 µg/mL
- IC80 [25]: > 50 µg/mL
- IC50, titer in TZM.bl cells [26]: > 50 µg/mL
- IC80, titer in TZM.bl cells [26]: > 50 µg/mL
- IC50, titer in TZM.bl cells [27]: < 0.001 µg/mL
- IC80, titer in TZM.bl cells [27]: 0.004 µg/mL
- IC50 [28]: 0.01 µg/mL
- IC80 [28]: 0.208 µg/mL
- IC50 [29]: 0.018 µg/mL
- IC80 [29]: 0.119 µg/mL
- IC50 [30]: 0.013 µg/mL
- IC80 [30]: 0.075 µg/mL
- IC50 [31]: 0.004 µg/mL
- IC80 [31]: 0.015 µg/mL
- IC50 [32]: 0.007 µg/mL
- IC80 [32]: 0.023 µg/mL
- IC50 [33]: 0.005 µg/mL
- IC80 [33]: 0.038 µg/mL
- IC50 [34]: 0.01 µg/mL
- IC80 [34]: > 50 µg/mL
- IC50 [35]: > 50 µg/mL
- IC80 [35]: > 50 µg/mL
- IC50, titer in TZM.bl cells [36]: > 50 µg/mL
- IC80, titer in TZM.bl cells [36]: > 50 µg/mL

Substance: PGT121 (antibody)
- IC50 [1]: 0.009 µg/mL
- IC80 [1]: 0.027 µg/mL
- IC50 [2]: 0.852 µg/mL
- IC80 [2]: 4.2 µg/mL
- IC50 [3]: > 50 µg/mL
- IC80 [3]: > 50 µg/mL
- IC80 [4]: 0.036 µg/mL
- IC50 [5]: 0.061 µg/mL
- IC80 [5]: 0.347 µg/mL
- IC50 [6]: 0.007 µg/mL
- IC80 [6]: 0.035 µg/mL
- IC50 [7]: 0.008 µg/mL
- IC80 [7]: 0.105 µg/mL
- IC50 [8]: 2.04 µg/mL
- IC80 [8]: 18.9 µg/mL
- IC80 [9]: 0.035 µg/mL
- IC50 [10]: 0.716 µg/mL
- IC80 [10]: 5.25 µg/mL
- IC50 [11]: 0.002 µg/mL
- IC80 [11]: 0.007 µg/mL
- IC50 [12]: > 50 µg/mL
- IC80 [12]: > 50 µg/mL
- IC50 [13]: > 50 µg/mL
- IC80 [13]: > 50 µg/mL
- IC50 [14]: > 50 µg/mL
- IC80 [14]: > 50 µg/mL
- IC50 [15]: < 0.001 µg/mL
- IC80 [15]: < 0.001 µg/mL
- IC50 [16]: < 0.001 µg/mL
- IC80 [16]: 0.001 µg/mL
- IC50 [17]: > 50 µg/mL
- IC80 [17]: > 50 µg/mL
- IC50 [18]: > 50 µg/mL
- IC80 [18]: > 50 µg/mL
- IC50 [19]: > 50 µg/mL
- IC80 [19]: > 50 µg/mL
- IC50 [20]: 0.334 µg/mL
- IC80 [20]: 2.35 µg/mL
- IC50 [21]: 18.7 µg/mL
- IC80 [21]: > 50 µg/mL
- IC50 [22]: > 50 µg/mL
- IC80 [22]: > 50 µg/mL
- IC50 [23]: 15.4 µg/mL
- IC80 [23]: > 50 µg/mL
- IC50 [24]: > 50 µg/mL
- IC80 [24]: > 50 µg/mL
- IC50 [25]: 0.041 µg/mL
- IC80 [25]: 0.14 µg/mL
- IC50 [26]: > 50 µg/mL
- IC80 [26]: > 50 µg/mL
- IC50 [27]: 0.005 µg/mL
- IC50 [28]: 26.3 µg/mL
- IC80 [28]: > 50 µg/mL
- IC50 [29]: 4.77 µg/mL
- IC80 [29]: > 50 µg/mL
- IC50 [30]: > 50 µg/mL
- IC80 [30]: > 50 µg/mL
- IC50 [31]: > 50 µg/mL
- IC80 [31]: > 50 µg/mL
- IC50 [32]: 0.024 µg/mL
- IC80 [32]: 0.073 µg/mL
- IC50 [33]: 0.007 µg/mL
- IC80 [33]: 0.023 µg/mL
- IC50 [34]: 0.026 µg/mL
- IC80 [34]: 0.077 µg/mL
- IC50 [35]: 3.97 µg/mL
- IC80 [35]: 44.6 µg/mL
- IC50 [36]: > 50 µg/mL
- IC80 [36]: > 50 µg/mL
